Data set [1] can be described thus: Lipophilicity (logP), partition in n-octanol/PBS (pH 7.4). Type of data set: physicochemical. Here is the method:
The partition coefficient was measured for each compound in a biphasic system of n-octanol/PBS (pH 7.4). The biphasic mixture was shaken (vortex, 1 min) and then centrifuged (14,000 rpm, 5 min) before the organic (n-octanol) and aqueous (PBS, pH 7.4) phases were separated. The activity of each phase (corresponding to the content of radiobioconjugate) was determined by measuring γ-radiation, using a well-type NaI(Tl) detector. P was calculated as the ratio of activity in the organic versus aqueous phases (as an average value from at least three independent measurements). Immediately after the γ-radiation measurements, the aqueous phase was analyzed by HPLC (system 2) to determine whether the tested radiobioconjugate existed in the liquid phase in an unchanged form.

Data set [2] is classed as in vitro ADME, human. Here is the method:
Stability tests of 2a–e compounds in CSF and HS were performed similarly to the previous one. The solution (0.1 mL) of isolated 2a–e radiobioconjugate in 0.1 M PBS buffer (pH 7.4), was added to 0.9 mL of CSF or HS and incubated at 37 °C. After specific time intervals (1, 2, 4 and 24 h), a small sample (0.1–0.2 mL) of the mixture was taken, mixed with ethanol (0.3–0.5 mL) and shaken vigorously to precipitate protein components as well as part of the tested radiobioconjugate bound to protein components. The sample was then centrifuged (14,000 rpm, 5 min) and the supernatant separated. The radioactivities of both supernatant and precipitate were measured using the well-type NaI(Tl) detector (Institute of Nuclear Chemistry and Technology, Warsaw, Poland). […]

In data set [3] the target is T1, NK-1 receptors expressed on glioblastoma cells (U373 MG) (Homo sapiens, UniProt P25103).
T1 construct: host or cells: U373 MG (Uppsala) human glioblastoma astrocytoma cells
Briefly: Saturation binding studies on U373 MG cells. The conditions noted are these: 37 °C, 1.5 h, Scatchard analysis, mean ± SD of three experiments. Here is the method: To determine the affinity of selected radiobioconjugates: […] One day before the experiment, 8 × 10^5 cells/well were seeded in six-well plates. To determine total binding, different concentrations of peptides (15.3 pM to 100 nM) were added to the cells and incubated at 37 °C for 1.5 h. Cellular uptake was stopped by aspirating the reaction supernatant, followed by washing twice with 1 mL of cold PBS. Finally, the cells were lysed using 1 M NaOH to detach them from the well plates. To determine nonspecific binding, the cells were incubated with 1000-fold excess of unlabelled peptides. The radioactivities of collected samples with cell pellets and supernatants were measured using Perkin Elmer automatic γ-counter. The specific binding was obtained by subtracting nonspecific binding from total binding. For estimating the receptor density (Bmax) and the dissociation constant (Kd) of the receptor for the studied radiobioconjugates, the Scatchard analysis method was used. Results are means ±SD of three individual experiments.

The target in data set [4] is [177Lu]DOTA-[Thi8,Met(O2)11]Substance P(5-11) 5-11 (Homo sapiens, UniProt P20366, 177Lu-DOTA, Thi8, Met(O2)11). Briefly: radioligand binding.
Data set [5] has as its target [177Lu]DOTA-Substance P(4-11) 4-11 (Homo sapiens, UniProt P20366, 177Lu-DOTA). Put plainly: radioligand binding.
Data set [6] concerns the target [177Lu]DOTA-[Thi8,Met(O2)11]Substance P(1-11) 1-11 (Homo sapiens, UniProt P20366, 177Lu-DOTA, Thi8, Met(O2)11). Put plainly: radioligand binding.

Where two headings read alike, the source gives them in different places. Where a SMILES comes first, the peptide text is derived from it. Where no end group is shown, it is not given here. [ ]: non-standard residue; d: D form. The star is where a group is joined. DOTA = O=C(O)CN1CCN(CC(=O)O)CCN(CC(=O)*)CCN(CC(=O)O)CC1; Met(O2) = CS(=O)(=O)CC[C@H](N)C(=O)O; NS3/CN = chelator carrying 99mTc; 2Thi = N[C@@H](Cc1cccs1)C(=O)O

As to `[C-]#[N+]CCCC(=O)N[C@@H](CCCNC(=N)N)C(=O)N1CCC[C@H]1C(=O)N[C@@H](CCCCN)C(=O)N1CCC[C@H]1C(=O)N[C@@H](CCC(N)=O)C(=O)N[C@@H](CCC(N)=O)C(=O)N[C@@H](Cc1ccccc1)C(=O)N[C@@H](Cc1ccccc1)C(=O)NCC(=O)N[C@@H](CC(C)C)C(=O)N[C@@H](CCSC)C(N)=O` [1a, [^99mTc]NS3/CN-SP(1–11), metal not drawn], the logP (in general, the decadic logarithm of the partition coefficient of the neutral form, usually between octanol and water) in data set [1] (n-octanol/PBS pH 7.4, [99mTc]NS3/CN-SP radiobioconjugates, read-out: logP) amounted to 0.26 ± 0.05.
The molecule `CSCC[C@H](NC(=O)[C@H](CC(C)C)NC(=O)CNC(=O)[C@H](Cc1ccccc1)NC(=O)[C@H](Cc1ccccc1)NC(=O)[C@H](CCC(N)=O)NC(=O)[C@H](CCC(N)=O)NC(=O)[C@@H]1CCCN1C(=O)[C@H](CCCCN)NC(=O)[C@@H]1CCCN1C(=O)[C@H](CCCNC(=N)N)NC(=O)CN1CCN(CC(=O)O)CCN(CC(=O)O)CCN(CC(=O)O)CC1)C(N)=O` [2a, [^177Lu]DOTA-SP(1–11), metal not drawn] registered a logP in data set [1] (pH 7.4) of -5.12 ± 0.06. Also, the “Enzymatic biomolecule biodegradation in human serum (ITLC)” value (from here on “Enzymatic biomolecule biodegradation”) in data set [2] is on record as “only partial”.
In turn, `CC(C)C[C@H](NC(=O)CNC(=O)[C@H](Cc1cccs1)NC(=O)[C@H](Cc1ccccc1)NC(=O)[C@H](CCC(N)=O)NC(=O)[C@H](CCC(N)=O)NC(=O)[C@@H]1CCCN1C(=O)[C@H](CCCCN)NC(=O)[C@@H]1CCCN1C(=O)[C@H](CCCNC(=N)N)NC(=O)CN1CCN(CC(=O)O)CCN(CC(=O)O)CCN(CC(=O)O)CC1)C(=O)N[C@@H](CCS(C)(=O)=O)C(N)=O` [2b, [^177Lu]DOTA-[Thi^8,Met(O2)^11]SP(1–11), metal not drawn] showed a logP in data set [1] (pH 7.4) of -5.28 ± 0.02. Besides, the Kd – broadly, the concentration at which binding is half-saturated – in data set [3] turned out to be 11.1 ± 2.7 nM. Besides, in data set [2], the “Enzymatic biomolecule biodegradation” value was “only partial”.
Taken in the same sequence, the figures for `CSCC[C@H](NC(=O)[C@H](CC(C)C)NC(=O)CNC(=O)[C@H](Cc1ccccc1)NC(=O)[C@H](Cc1ccccc1)NC(=O)[C@H](CCC(N)=O)NC(=O)[C@H](CCC(N)=O)NC(=O)[C@@H]1CCCN1C(=O)CN1CCN(CC(=O)O)CCN(CC(=O)O)CCN(CC(=O)O)CC1)C(N)=O` [2c, [^177Lu]DOTA-SP(4–11), metal not drawn] were -2.93 ± 0.01, 13.3 ± 1.6 nM and “only partial”.
`CSCC[C@H](NC(=O)[C@H](CC(C)C)NC(=O)CNC(=O)[C@H](Cc1ccccc1)NC(=O)[C@H](Cc1ccccc1)NC(=O)[C@H](CCC(N)=O)NC(=O)[C@H](CCC(N)=O)NC(=O)CN1CCN(CC(=O)O)CCN(CC(=O)O)CCN(CC(=O)O)CC1)C(N)=O` [2d, [^177Lu]DOTA-SP(5–11), metal not drawn] ({DOTA}-QQFFGLM-NH2) returned a logP in data set [1] (pH 7.4) of -2.68 ± 0.01. For the same molecule, the “Enzymatic biomolecule biodegradation” value in data set [2] was “virtually all of the radiobiomolecule that was deposited onto the strip was degraded enzymatically”.
`CC(C)C[C@H](NC(=O)CNC(=O)[C@H](Cc1cccs1)NC(=O)[C@H](Cc1ccccc1)NC(=O)[C@H](CCC(N)=O)NC(=O)[C@H](CCC(N)=O)NC(=O)CN1CCN(CC(=O)O)CCN(CC(=O)O)CCN(CC(=O)O)CC1)C(=O)N[C@@H](CCS(C)(=O)=O)C(N)=O` [2e, [^177Lu]DOTA-[Thi^8,Met(O2)^11]SP(5–11), metal not drawn] ({DOTA}-QQF[2Thi]GL[Met(O2)]-NH2) gave a logP in data set [1] (pH 7.4) of -3.94 ± 0.01. Moreover, in data set [3], the Kd amounted to 48.7 ± 5.1 nM. In addition, the “Enzymatic biomolecule biodegradation” value in data set [2] is on record as “virtually all of the radiobiomolecule that was deposited onto the strip was degraded enzymatically”.
The molecule “[^99mTc]NS3/CN-SP(4–11) ({NS3/CN}-PQQFFGLM; ends and bridges not checked; also: 99mTc complex of NS3/CN chelate; UniProt P20366 61-68, looked up, fragment) [1c, SP(4–11) labelled with technetium-99m via NS3/CN-BFCA]” displayed a logP in data set [1] (pH 7.4) of 0.09 ± 0.02.
Still for that read-out and setting: the result for “[^99mTc]NS3/CN-SP(5–11) ({NS3/CN}-QQFFGLM; ends and bridges not checked; also: 99mTc complex of NS3/CN chelate; UniProt P20366 62-68, looked up, fragment) [1d, SP(5–11) labelled with technetium-99m via NS3/CN-BFCA]” reads 1.14 ± 0.01.
Still for that read-out and setting: with “[^99mTc]NS3/CN-[Thi^8,Met(O2)^11]SP(5–11) [1e]” the figure was 0.64 ± 0.02.

B1: NK-1 receptor (protein)
chain: MDNVLPVDSDLSPNISTNTSEPNQFVQPAWQIVLWAAAYTVIVVTSVVGNVVVMWIILAHKRMRTVTNYFLVNLAFAEASMAAFNTVVNFTYAVHNEWYYGLFYCKFHNFFPIAAVFASIYSMTAVAFDRYMAIIHPLQPRLSATATKVVICVIWVLALLLAFPQGYYSTTETMPSRVVCMIEWPEHPNKIYEKVYHICVTVLIYFLPLLVIGYAYTVVGITLWASEIPGDSSDRYHEQVSAKRKVVKMMIVVVCTFAICWLPFHIFFLLPYINPDLYLKKFIQQVYLAIMWLAMSSTMYNPIIYCCLNDRFRLGFKHAFRCCPFISAGDYEGLEMKSTRYLQTQGSVYKVSRLETTISTVVGAHEEEPEDGPKATPSSLDLTSNCSSRSDSKTMTESFSFSSNVLS
With B1, the Kd was 48.7 nM in data set [4], 13.3 nM in data set [5] and 11.1 nM in data set [6].

The values above are taken from PMC6222600, “Application of Neurokinin-1 Receptor in Targeted Strategies for Glioma Treatment. Part I: Synthesis and Evaluation of Substance P Fragments Labeled with ^99mTc and ^177Lu as Potential Receptor Radiopharmaceuticals” (Molecules : A Journal of Synthetic Chemistry and Natural …, 2018).
